Test results from the MegaScale stability set (Tsuboyama et al. 2023).

B1: EEHEE_rd4_0469 (parent)
chain: ITIHVNGVTYHFDNPEEAEKFAQKMAKTYQLKMEIHNGEFHME

Variants of: B1
Experiment: folding stability dG (cDNA display proteolysis); higher = more stable
Settings: PBS, room temperature

Row | Variant | folding stability dG
1 | ITIHVNGVTYHFDNPEEAEKFAQKMAKTYQLKLEIHNGEFHME [M33L] | 6 kJ/mol
2 | ITIHVNGVTYHFDNPEEAEKFAQKMAKTYQLKHEIHNGEFHME [M33H] | 1.23 kJ/mol
3 | ITIHVNGVTYHFDNPEEAEKFAQKMAKTYQLKTEIHNGEFHME [M33T] | 2.78 kJ/mol
4 | ITIHVNGVTYHFDNPEEAEKFAQKMAKTYQLKGEIHNGEFHME [M33G] | 1.89 kJ/mol
5 | ITIHVNGVTYHFDNPEEAEKFAQKMAKTYQLKMTIHNGEFHME [E34T] | 6.34 kJ/mol
6 | ITIHVNGVTYHFDNPEEAEKFAQKMAKTYQLKMWIHNGEFHME [E34W] | 6.46 kJ/mol
7 | ITIHVNGVTYHFDNPEEAEKFAQKMAKTYQLKMGIHNGEFHME [E34G] | 3.25 kJ/mol
8 | ITIHVNGVTYHFDNPEEAEKFAQKMAKTYQLKMRIHNGEFHME [E34R] | 5.09 kJ/mol
9 | ITIHVNGVTYHFDNPEEAEKFAQKMAKTYQLKMAIHNGEFHME [E34A] | 4.32 kJ/mol
10 | ITIHVNGVTYHFDNPEEAEKFAQKMAKTYQLKMQIHNGEFHME [E34Q] | 4.15 kJ/mol
11 | ITIHVNGVTYHFDNPEEAEKFAQKMAKTYQLKMFIHNGEFHME [E34F] | 7.62 kJ/mol
12 | ITIHVNGVTYHFDNPEEAEKFAQKMAKTYQLKMLIHNGEFHME [E34L] | 5.29 kJ/mol
13 | ITIHVNGVTYHFDNPEEAEKFAQKMAKTYQLKMIIHNGEFHME [E34I] | 7 kJ/mol
14 | ITIHVNGVTYHFDNPEEAEKFAQKMAKTYQLKMCIHNGEFHME [E34C] | 10.2 kJ/mol
15 | ITIHVNGVTYHFDNPEEAEKFAQKMAKTYQLKMKIHNGEFHME [E34K] | 4.89 kJ/mol
16 | ITIHVNGVTYHFDNPEEAEKFAQKMAKTYQLKMHIHNGEFHME [E34H] | 5.91 kJ/mol
17 | ITIHVNGVTYHFDNPEEAEKFAQKMAKTYQLKMVIHNGEFHME [E34V] | 7.99 kJ/mol
18 | ITIHVNGVTYHFDNPEEAEKFAQKMAKTYQLKMNIHNGEFHME [E34N] | 4.42 kJ/mol
19 | ITIHVNGVTYHFDNPEEAEKFAQKMAKTYQLKMMIHNGEFHME [E34M] | 5.56 kJ/mol
20 | ITIHVNGVTYHFDNPEEAEKFAQKMAKTYQLKMDIHNGEFHME [E34D] | 3.09 kJ/mol

Row | Variant | folding stability dG
21 | ITIHVNGVTYHFDNPEEAEKFAQKMAKTYQLKMSIHNGEFHME [E34S] | 5.38 kJ/mol
22 | ITIHVNGVTYHFDNPEEAEKFAQKMAKTYQLKMYIHNGEFHME [E34Y] | 7.43 kJ/mol
23 | ITIHVNGVTYHFDNPEEAEKFAQKMAKTYQLKMPIHNGEFHME [E34P] | 0.874 kJ/mol
24 | ITIHVNGVTYHFDNPEEAEKFAQKMAKTYQLVMEIHNGEFHME [K32V] | 6.77 kJ/mol
25 | ITIHVNGVTYHFDNPEEAEKFAQKMAKTYQLQMEIHNGEFHME [K32Q] | 6.06 kJ/mol
26 | ITIHVNGVTYHFDNPEEAEKFAQKMAKTYQLAMEIHNGEFHME [K32A] | 5.73 kJ/mol
27 | ITIHVNGVTYHFDNPEEAEKFAQKMAKTYQLFMEIHNGEFHME [K32F] | 6.04 kJ/mol
28 | ITIHVNGVTYHFDNPEEAEKFAQKMAKTYQLGMEIHNGEFHME [K32G] | 4.74 kJ/mol
29 | ITIHVNGVTYHFDNPEEAEKFAQKMAKTYQLPMEIHNGEFHME [K32P] | 4.54 kJ/mol
30 | ITIHVNGVTYHFDNPEEAEKFAQKMAKTYQLLMEIHNGEFHME [K32L] | 6.37 kJ/mol
31 | ITIHVNGVTYHFDNPEEAEKFAQKMAKTYQLWMEIHNGEFHME [K32W] | 6.45 kJ/mol
32 | ITIHVNGVTYHFDNPEEAEKFAQKMAKTYQLYMEIHNGEFHME [K32Y] | 6.63 kJ/mol
33 | ITIHVNGVTYHFDNPEEAEKFAQKMAKTYQLTMEIHNGEFHME [K32T] | 6.32 kJ/mol
34 | ITIHVNGVTYHFDNPEEAEKFAQKMAKTYQLMMEIHNGEFHME [K32M] | 6.02 kJ/mol
35 | ITIHVNGVTYHFDNPEEAEKFAQKMAKTYQLRMEIHNGEFHME [K32R] | 3.55 kJ/mol
36 | ITIHVNGVTYHFDNPEEAEKFAQKMAKTYQLDMEIHNGEFHME [K32D] | 5.5 kJ/mol
37 | ITIHVNGVTYHFDNPEEAEKFAQKMAKTYQLSMEIHNGEFHME [K32S] | 5.82 kJ/mol
38 | ITIHVNGVTYHFDNPEEAEKFAQKMAKTYQLIMEIHNGEFHME [K32I] | 6.93 kJ/mol
39 | ITIHVNGVTYHFDNPEEAEKFAQKMAKTYQLHMEIHNGEFHME [K32H] | 6.18 kJ/mol
40 | ITIHVNGVTYHFDNPEEAEKFAQKMAKTYQLEMEIHNGEFHME [K32E] | 6.2 kJ/mol

Row | Variant | folding stability dG
41 | ITIHVNGVTYHFDNPEEAEKFAQKMAKTYQLNMEIHNGEFHME [K32N] | 5.35 kJ/mol
42 | ITIHVNGVTYHFDNPEEAEKFAQKMAKTYQLKMERHNGEFHME [I35R] | 2.18 kJ/mol
43 | ITIHVNGVTYHFDNPEEAEKFAQKMAKTYQLKMEPHNGEFHME [I35P] | 2.35 kJ/mol
44 | ITIHVNGVTYHFDNPEEAEKFAQKMAKTYQLKMEAHNGEFHME [I35A] | 3.02 kJ/mol
45 | ITIHVNGVTYHFDNPEEAEKFAQKMAKTYQLKMEKHNGEFHME [I35K] | 2.69 kJ/mol
46 | ITIHVNGVTYHFDNPEEAEKFAQKMAKTYQLKMEDHNGEFHME [I35D] | 2.85 kJ/mol
47 | ITIHVNGVTYHFDNPEEAEKFAQKMAKTYQLKMEGHNGEFHME [I35G] | 3.02 kJ/mol
48 | ITIHVNGVTYHFDNPEEAEKFAQKMAKTYQLKMEVHNGEFHME [I35V] | 4.31 kJ/mol
49 | ITIHVNGVTYHFDNPEEAEKFAQKMAKTYQLKMETHNGEFHME [I35T] | 3.36 kJ/mol
50 | ITIHVNGVTYHFDNPEEAEKFAQKMAKTYQLKMESHNGEFHME [I35S] | 3.2 kJ/mol
51 | ITIHVNGVTYHFDNPEEAEKFAQKMAKTYQLKMEMHNGEFHME [I35M] | 3.97 kJ/mol
52 | ITIHVNGVTYHFDNPEEAEKFAQKMAKTYQLKMELHNGEFHME [I35L] | 4.46 kJ/mol
53 | ITIHVNGVTYHFDNPEEAEKFAQKMAKTYQLKMEQHNGEFHME [I35Q] | 3.44 kJ/mol
54 | ITIHVNGVTYHFDNPEEAEKFAQKMAKTYQLKMEYHNGEFHME [I35Y] | 5.17 kJ/mol
55 | ITIHVNGVTYHFDNPEEAEKFAQKMAKTYQLKMENHNGEFHME [I35N] | 2.87 kJ/mol
56 | ITIHVNGVTYHFDNPEEAEKFAQKMAKTYQLKMEEHNGEFHME [I35E] | 3.53 kJ/mol
57 | ITIHVNGVTYHFDNPEEAEKFAQKMAKTYQLKMEHHNGEFHME [I35H] | 3.03 kJ/mol
58 | ITIHVNGVTYHFDNPEEAEKFAQKMAKTYQLKMEFHNGEFHME [I35F] | 5.04 kJ/mol
59 | ITIHVNGVTYHFDNPEEAEKFAQKMAKTYQLKMEWHNGEFHME [I35W] | 4.45 kJ/mol
